Data on three molecules can be found in article PMC12197871 (Protein Science : A Publication of the Protein Society, 2025).

This series concerns the target GsLDH (Geobacillus stearothermophilus, UniProt P00344). Put plainly: GsLDH kinetic studies. Type of series: biochemical.

B1: Gln189Leu: GsLDH single mutant Gln189Leu, located at the dimer–dimer interface (protein, UniProt P00344 1-317, looked up, variant Q189L)
L-lactate dehydrogenase: MKNNGGARVVVIGAGFVGASYVFALMNQGIADEIVLIDANESKAIGDAMDFNHGKVFAPKPVDIWHGDYDDCRDADLVVICAGANQKPGETRLDLVDKNIAIFRSIVESVMASGFQGLFLVATNPVDILTYATWKFSGLPHERVIGSGTILDTARFRFLLGEYFSVAPQNVHAYIIGEHGDTELPVWSLAYIGVMPIRKLVESKGEEAQKDLERIFVNVRDAAYQIIEKKGATYYGIAMGLARVTRAILHNENAILTVSAYLDGLYGERDVYIGVPAVINRNGIREVIEIELNDDEKNRFHHSAATLKSVLARAFTR
For the molecule B1, where the note is “with FBP”, the “fold higher substrate inhibition (lower K i) compared to the WT” value is reported as 20 fold. Under “with FBP (5 mM)”, the k cat is 83 s⁻¹ and the “k cat/K m or k cat/K 0.5” value is 106000 ± 19000 M⁻¹ s⁻¹. Further, for the setting “without FBP”, the k cat came to 73 ± 12 s⁻¹, the “k cat/K m or k cat/K 0.5” value was 32000 ± 4000 M⁻¹ s⁻¹ and the “n (Hill coefficient)” value came out at 1.4 ± 0.1.

B2: WT: wild‐type L‐lactate dehydrogenase from Geobacillus stearothermophilus (UniProt P00344), N‐terminal His‐tagged (protein, UniProt P00344 1-317, looked up)
L-lactate dehydrogenase: MKNNGGARVVVIGAGFVGASYVFALMNQGIADEIVLIDANESKAIGDAMDFNHGKVFAPKPVDIWHGDYDDCRDADLVVICAGANQKPGETRLDLVDKNIAIFRSIVESVMASGFQGLFLVATNPVDILTYATWKFSGLPHERVIGSGTILDTARFRFLLGEYFSVAPQNVHAYIIGEHGDTELPVWSQAYIGVMPIRKLVESKGEEAQKDLERIFVNVRDAAYQIIEKKGATYYGIAMGLARVTRAILHNENAILTVSAYLDGLYGERDVYIGVPAVINRNGIREVIEIELNDDEKNRFHHSAATLKSVLARAFTR
modifications: N-terminal His-tag
Take B2: where the note is “with FBP (5 mM)”, the k cat worked out at 64 s⁻¹ and the “k cat/K m or k cat/K 0.5” value turned out to be 144000 ± 67000 M⁻¹ s⁻¹. In addition, where the note is “without FBP”, the k cat was 118 ± 34 s⁻¹, the “k cat/K m or k cat/K 0.5” value was 43000 ± 13000 M⁻¹ s⁻¹ and the “n (Hill coefficient)” value was determined as 1.5 ± 0.1.

B3: Triple mutant: previously reported GsLDH triple mutant with substitutions Arg104Cys, Gln189Leu and Asn293Ser (protein, UniProt P00344 1-317, looked up, variant R104C Q189L N293S)
L-lactate dehydrogenase: MKNNGGARVVVIGAGFVGASYVFALMNQGIADEIVLIDANESKAIGDAMDFNHGKVFAPKPVDIWHGDYDDCRDADLVVICAGANQKPGETRLDLVDKNIAIFCSIVESVMASGFQGLFLVATNPVDILTYATWKFSGLPHERVIGSGTILDTARFRFLLGEYFSVAPQNVHAYIIGEHGDTELPVWSLAYIGVMPIRKLVESKGEEAQKDLERIFVNVRDAAYQIIEKKGATYYGIAMGLARVTRAILHNENAILTVSAYLDGLYGERDVYIGVPAVINRNGIREVIEIELSDDEKNRFHHSAATLKSVLARAFTR
For B3, where the note is “with FBP (5 mM)”, the k cat is 94 s⁻¹ and the “k cat/K m or k cat/K 0.5” value amounted to 156000 ± 59000 M⁻¹ s⁻¹. Further, where the note is “without FBP”, the k cat is 57 ± 8 s⁻¹ and the “k cat/K m or k cat/K 0.5” value was 141000 ± 18000 M⁻¹ s⁻¹.
